# Data taken from the supplement of paper PMC9170038.
# System: MS2 coat protein
# Assay: apparent KD of MS2 coat protein, switch OFF state (with FMN for OFF switches, without FMN for ON switches); designed switch direction (-1 OFF switch, 1 ON switch): -1; higher = weaker reporter binding
# Settings: FMN input: 0 or 200 uM; Eterna round: R93 (includes R88 designs)
# In short: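 With or without constant ligand, designed RNA switches in 100 mM Tris-HCl pH 7.5, 80 mM KCl and 4 mM MgCl2 were titrated with SNAP-549-labelled MS2 coat protein. Concentrations went up in twofold steps from 0.7 or 1.5 nM to 3 µM. The switches had been transcribed on-chip from Illumina sequencing clusters, and apparent KD is the per-design median of normalised cluster binding-curve fits.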
row,Sequence,apparent KD of MS2 coat protein [nM]
1,AUAAUACAUGAGGAUCACCCAUGUCAGGAUAUGCUAAAAUUAAAAUUAAAUCAAAAAUGUAGAAGGGACUAAAU [Exclusion Z3],42.9
2,AACAUGUCAGGAUAUGUAGCAAAAAGUGAUCCAAAAAAGCUACAGAAGGGACAUGAGGAUCACCCAUGUAAAAA [Ex4: 933],44.5
3,AAACGUAGAGGAUAUACAGGGCUAUUACGAAAGUAAUAGAAACAUGAGGAUCACCCAUGUAGAAGGCUACGAAA [Mod2 of Meechl 64% 1],67.9
4,AGUAUGCGAGGAUAUACAUGAGGAUCACCCAUGUGAGAGAUAAAAGUGAGAAAGAAAAGUAGAAGGCGCGUACA [JL Lego Mod 21],326
5,AACAGUACAGGAUAUACAUGAGGAUCACCCAUGUGAAAAUUAAGUGGGAAACCACAAAGUAGAAGGGUACUGAA [Mat - Exclusion 3 - Eli mod - D59],114
6,AAAAAGAUAGGAUAUACGAACAUGUCAAAAGACGUGAAGGGACAUGAGGAUCACCCAUGUAGAAGGAUUAAAAA [JL Wide Open 39],17.2
7,AAGUUAUUAGGAUAUACUUGUGCGAUUAAUACGCUGAUAGUACAUGAGGAUCACCCAUGUAGAAGGAAUAAAAA [JR_Exc002_Sub410],21.2
8,GAUAGUGAAGGAUAUACUGGAGGAGUGCGAUAGAAGAAAGAACAUGAGGAUCACCCAUGUAGAAGGUCAGAAGU [JR_Exc002_Sub1225],27.2
9,AAAAAGGUAGGAUAUACAUGAGGAUCACCCAUGUACAUAAAUGGAGAAAAAAACAGUUGUAGAAGGGCCAAAAA [Ex3 Malc#9],34.5
10,AAAGAUGGAGGAUAUACAUGAGGAUCACCCAUGUGGAAUCUAAAAUGGGAAAAAGAAAGUAGAAGGCCAUAAAA [Ex 3 May 40],83.1
11,CUCAAGUGAGGAUAUAUAAGAAAAGAAGAGAAAGAAAAGAAAUAGAAGGCACAUGAGGAUCACCCAUGUAAGAA [EteRNA is fun!],24.1
12,AAAAAACAUGAGGAUCACCCAUGUGAGGAUAUACGAAAGUAGAAGGCACUAAAAAAAAAAAGAAGGAAAAAAAA [Meechl Ex1 R2 m0],42.4
13,UAAAAACAUGAGGAUCACCCAUGUCAGGAUAUGUGCUCAGUGAAAAACUGAGUAACAAGCAGAAGGGACAAUAA [JR_Exc001_Sub202],31.4
14,CAAUCUGCAGGAUAUACAUGAGGAUCACCCAUGUAAGGACAAUAAAUAAGAAGAAGAAGUAGAAGGGCAGACAA [e3],29.2
15,AAGAACAGAGGAUAUACUAAAGAAAUGAAAAGAAAGAAAGAACAUGAGGAUCACCCAUGUAGAAGGCUGAAGAA [Yakbim Sekhaenre],13.5
16,AGAAACUGAGGAUAUACUUUGGGAAAAGAAAAGAUGAUGUUACAUGAGGAUCACCCAUGUAGAAGGCAGAAAGA [Mat - Exclusion 2 - Mod - D152],30.3
17,AAGAGGUCAGGAUAUGCCCACCAGGAAAAACGUCCAGGUGGGCAGAAGGGACAUGAGGAUCACCCAUGUAAAGA [Opal 41],114
18,AAGAAGUGAGGAUAUCGAAGACUGUCGAAAAGACAGUCGAACGAGAAGGCACAUGAGGAUCACCCAUGUGAUAA [Mat - Exaclusion 4 - Eli mod - D70],107
19,GGUUGGCGAGGAUAUACAUGAGGAUCACCCAUGUGAGUGAAAAAAGUGAGAAAGAAAAGUAGAAGGCGCUGACG [salish99-ex3-47],489
20,GGAAAACAUGAGGAUCACCCAUGUAAGGAUAUGCUAAAAAAAAAAAAAAACCCACCAGGCAGAAGGUACUAAAG [Janelle Amethyst 18 Mod 2 - Jieux - Exclusion 1],26.8
21,"AAAAAGAGAGGAUAUACAUGAGGAUCACCCAUGUGAAAGACGAAAAAAAGUCUAAAGUGUAGAAGGCUCAAAAA [65%, Moding Exclusion3-cac2, 14]",104
22,AAGAAUGAAGGAUAUACAUGAGGAUCACCCAUGUAAGAGAAAGAGGGAAAAGAGAAAAGUAGAAGGUCAAAGAA [Ruby 72],33.7

row,Sequence,apparent KD of MS2 coat protein [nM]
1,AGCUAGUCAGGAUAUACGAAAAUGCUAGAAGACGUAAGGGAACAUGAGGAUCACCCAUGUAGAAGGGACUAGCA [Diamond 46],30.4
2,AAAAAUGGAGGAUAUACAUGAGGAUCACCCAUGUGAAACAAAAAAAAAAACAAAAAAAGUAGAAGGCCAAAAAA [Gilly Gone Silly 2 - Jieux - Exclusion 3],53.6
3,GAAAAUGGAGGAUAUACAUGAGGAUCACCCAUGUGUAAAAAAAAUUACACAAAAGAAAGUAGAAGGCCAUAAAG [Mat - Exclusion 3 - Mayanna mod - D106],138
4,AUAAUGUCAGGAUAUCAGUAGUAAAAAAAAAAAAUUACUACUGAGAAGGGACAUGAGGAUCACCCAUGUCAAAA [EX4 307: Super Stable 7],24.9
5,AAUAAGUGAGGAUAUGUAAAUAGUAGAUAAGAUUCCCUAAAACAGAAGGCACAUGAGGAUCACCCAUGUAAAUA [JR_Exc004_Sub007],19.7
6,AAGAAGUGAGGAUAUGCUGCUCGUCACAAAAGUGAUGAGUAGCAGAAGGCACAUGAGGAUCACCCAUGUAAAGA [JL eternac mod 1],48.8
7,AACGGGCUAGGAUAUACACAAGCCUCAUAACAAAUAAACAAACAUGAGGAUCACCCAUGUAGAAGGAGCGCAAA [Quraaon],72.5
8,AGUCUGAGAGGAUAUACAUGGGAAAAAAAAGUCAGAUCCCUACAUGAGGAUCACCCAUGUAGAAGGCUCUGACA [Ex2 Design 147: Sub-opt 11],11.4
9,AAUAAACAUGAGGAUCACCCAUGUCAGGAUAUGCACAAACAAACAAACAAACAAGCAAGCAGAAGGGACACUAC [Amethyst 88],28.6
10,AACUGACAUGAGGAUCACCCAUGUCAGGAUAUGCAUCUUAGGAAAAAAAAACUAAGAUGCAGAAGGGACAUGGG [Design 3: Super Stable 3],15.8
11,ACAAAUGUAGGAUAUACAUGAGGAUCACCCAUGUGGCAGAAACAGCAAACAAGACGAAGUAGAAGGACAACGAC [JR_Exc003-Sub902],28.6
12,CAAAAGCUAGGAUAUGCUAAUUGUUCCUUAAGUCAAAAUAAACAUGAGGAUCACCCAUGUAGAAGGAGCCCACA [Tegean],16.9
13,AACAGUACAGGAUAUACAUGAGGAUCACCCAUGUGAGAAUUAAGUGGAGAACCACAAAGUAGAAGGGUACUGAA [Mat - Exclusion 3 - JL mod - D8],147
14,AGAACACAUGAGGAUCACCCAUGUCAGGAUAUUCAAACAAAAACAAAACAAAACAAACGAAGAAGGGACAAAAG [May 2],36
15,CAUUCACAUGAGGAUCACCCAUGUAAGGAUAUCGAAAUAAAACUAAUCAAUAAACAAACGAGAAGGUACAAAAA [Exclusion 1 design 9],21.2
16,"AAAAAGGGAGGAUAUACAUGAGGAUCACCCAUGUAUCAGACGAAAAAGAGUCUGAAAUGUAGAAGGCCCAAAAA [65%, Moding Exclusion3-cac2, 2]",35.8
17,AAAUGACUAGGAUAUACAUGAGGAUCACCCAUGUGUUAAAAUAAAUACACAAAAGAAAGUAGAAGGAGUCAAAG [Mat - Exclusion 3 - Mayanna mod - D125],43.4
18,GAAUGUCUAGGAUAUACAUGAGGAUCACCCAUGUGUAAAAAUAAAUACACAAAAGAAAGUAGAAGGAGACAAAG [Mat - Exclusion 3 - Mayanna mod - D122],46.5
19,AACUGACAUGAGGAUCACCCAUGUCAGGAUAUGCUUCAUAAAAAAAAAAAAAAAUGAUGCAGAAGGGAUAUGGA [Design 36 :P Sub-opt 12],13.6
20,AAAAACCUAGGAUAUACAUGAGGAUCACCCAUGUAAAGAAACAAAAAGGGAAACACAAGUAGAAGGAGGAAGAA [JR_Exc003_Sub1203],27.4
21,ACCAGACAUGAGGAUCACCCAUGUCAGGAUAUAGUAUGAAAAAAAAAAAAAAAAAAUACUAGAAGGGACAAGGG [Design 14: Super Stable Short Helix 5],63.8
22,AAAAAACAUGAGGAUCACCCAUGUGAGGAUAUGAUGAAAGAUUGAAAAAGGUUGAAAGUCAGAAGGUAUGUGAA [Exclusion 1.3],35.7
